Where a chain is given by its changes, count along the chain named. In names and notes the source's numbering stands.
B1: E35D/D46E/M47V/V68M/L85Q (protein, UniProt P33681 35-288, looked up, variant E35D D46E M47V V68M L85Q)
T-lymphocyte activation …: VIHVTKEVKEVATLSCGHNVSVEELAQTRIYWQKDKKMVLTMMSGEVNIWPEYKNRTIFDITNNLSIMILALRPSDEGTYECVVQKYEKDAFKREHLAEVTLSVKADFPTPSISDFEIPTSNIRRIICSTSGGFPEPHLSWLENGEELNAINTTVSQDPETELYAVSSKLDFNMTTNHSFMCLIKYGHLRVNQTFNWNTTKQEHFPDNLLPSWAITLISVNGIFVICCLTYCFAPRCRERRRNERLRRESVRPV
B2: H18Y/E35D/V68M/A71G/R94Q/E95V (protein, UniProt P33681 35-288, looked up, variant H18Y E35D V68M A71G R94Q E95V)
T-lymphocyte activation …: B1 T-lymphocyte activation … with H18Y, E46D, V47M, A71G, Q85L, R94Q, E95V
modifications: Fc fusion
B3: E35D/M47V/V68M/L85M/Y87D (protein, UniProt P33681 35-288, looked up, variant E35D M47V V68M L85M Y87D)
T-lymphocyte activation …: B1 T-lymphocyte activation … with E46D, Q85M, Y87D
B4: E35D/D46V/M47L (protein)
chain: VIHVTKEVKEVATLSCGHNVSVEELAQTRIYWQKDKKMVLTMMSGVLNIWPEYKNRTIFDITNNLSIVILALRPSDEGTYECVVLKYEKDAFKREHLAEVTLSVKAD
B5: E35D/M47V/N48K (protein)
chain: B4 chain with V46D, L47V, N48K
B6: V68M/K89N (protein)
chain: B4 chain with D35E, V46D, L47M, V68M, K89N
B7: D46V/V68M/L85Q (protein)
chain: B4 chain with D35E, L47M, V68M, L85Q
B8: E35D/V68M/K89N (protein)
chain: B4 chain with V46D, L47M, V68M, K89N
B9: E35D/D46V/V68M/L85Q (protein)
chain: B4 chain with L47M, V68M, L85Q
B10: E35D/D46V/V68M (protein)
chain: B4 chain with L47M, V68M
B11: E35D/M47V/V68M/K89N (protein)
chain: B4 chain with V46D, L47V, V68M, K89N
B12: E35D/D46V/M47L/V68M (protein)
chain: B4 chain with V68M
B13: E35D/M47V/N48K/V68M (protein)
chain: B4 chain with V46D, L47V, N48K, V68M
B14: H18Y/M47L/A71G/D90G (protein)
chain: B4 chain with H18Y, D35E, V46D, A71G, D90G
B15: A26E/V68M/A71G/D90G (protein)
chain: B4 chain with A26E, D35E, V46D, L47M, V68M, A71G, D90G
B16: E35D/M47L/V68M/A71G (protein)
chain: B4 chain with V46D, V68M, A71G
B17: H18V/A26P/E35D/M47V/V68L/A71G (protein, UniProt P33681 35-288, looked up, variant H18V A26P E35D M47V V68L A71G)
T-lymphocyte activation …: B1 T-lymphocyte activation … with H18V, A26P, E46D, M68L, A71G, Q85L
B18: H18R/A26P/E35D/D46N/M47V/V68M/A71G/D90P (protein, UniProt P33681 35-288, looked up, variant H18R A26P E35D D46N M47V V68M A71G D90P)
T-lymphocyte activation …: B1 T-lymphocyte activation … with H18R, A26P, E46N, A71G, Q85L, D90P
modifications: Fc fusion

The molecules below were run against huCTLA4 (Homo sapiens, UniProt P16410) (assay: Flow binding to CHO cells stably expressing CTLA4). Conditions: Table E11; CHO cells stably expressing CTLA4; 33.3 nM.
Sequence of huCTLA4 (P16410 36-223): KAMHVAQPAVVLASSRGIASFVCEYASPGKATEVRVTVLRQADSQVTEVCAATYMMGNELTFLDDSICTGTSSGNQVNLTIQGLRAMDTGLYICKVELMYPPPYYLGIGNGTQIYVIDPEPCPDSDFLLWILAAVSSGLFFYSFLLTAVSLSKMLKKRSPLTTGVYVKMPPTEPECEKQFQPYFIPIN
Parameters: huCTLA4 and huPD-L1, full-length mammalian surface expression constructs were generated; expressed in transfected cells; host or cells: CHO cells, lentiviral transduction, sorted to >98% purity
Description: (§1) Binding of selected immunomodulatory fusion proteins to cognate binding partners was assessed. […] Cells were sorted in a Bio-Rad S3 Cell Sorter (Bio-Rad Corp., USA) to >98% purity. Jurkat/IL2 reporter cells, which endogenously express CD28, were used to detect binding to CD28.
(§2) For staining and analysis by flow cytometry, 100,000 cells of appropriate transfected cells were plated in 96-well round bottom plates. Cells were spun down and resuspended in staining buffer (phosphate buffered saline (PBS), 1% bovine serum albumin (BSA), and 0.1% sodium azide) for 20 minutes to block non-specific binding. […] Primary staining was performed on ice for 45 minutes, before washing cells in staining buffer twice. Phycoerythrin (PE)-conjugated anti-human Fc (Jackson ImmunoResearch, USA) was diluted 1:150, added to cells and incubated another 30 minutes on ice. Cells were then washed twice with 150 μL/well stain buffer, fixed in 2% formaldehyde/PBS, and analyzed on Intellicyt flow cytometer (Intellicyt Corp., USA). PE Mean Fluorescence Intensity (MFI) was calculated for each cell type with FlowJo Version 10 software (FlowJo LLC, USA).
(§3) Binding assays were carried out to assess the specificity and affinity of multivalent proteins to cell-expressed CTLA-4, CD28, and PD-L1 counter structures.
(§4) The EC50 for binding also was determined.
For B1, the “CTLA4 MFI at 33.3 nM” value was 15533.
With B2 the “CTLA4 MFI at 33.3 nM” value was 18281.
B3 was tested, and the “CTLA4 MFI at 33.3 nM” value was 13936.

Same assay, conditions: Table E16; consensus variants; CHO cells stably expressing CTLA4; 33.3 nM
In the case of B2, the “CTLA4 MFI at 33.3 nM” value is reported as 19396.

Same assay, conditions: Table E19; CHO cells stably expressing CTLA4; 33.3 nM
For B4, the “CTLA4 MFI at 33.3 nM” value was 44977.
In the case of B5, the “CTLA4 MFI at 33.3 nM” value is reported as 47430.
B6 was tested, and the “CTLA4 MFI at 33.3 nM” value was 2330.
With B7 the “CTLA4 MFI at 33.3 nM” value was 7567.
B8 was tested, and the “CTLA4 MFI at 33.3 nM” value was 24838.
For B9, the “CTLA4 MFI at 33.3 nM” value was 32176.
For B10, the “CTLA4 MFI at 33.3 nM” value was 31195.
B11 was tested, and the “CTLA4 MFI at 33.3 nM” value was 29493.
B12 was tested, and the “CTLA4 MFI at 33.3 nM” value was 34319.
With B13 the “CTLA4 MFI at 33.3 nM” value was 32913.

Same assay, conditions: Table E20; CHO cells stably expressing CTLA4; 33.3 nM
For B14, the “CTLA4 MFI at 33.3 nM” value was 18162.
In the case of B15, the “CTLA4 MFI at 33.3 nM” value is reported as 8666.
For B16, the “CTLA4 MFI at 33.3 nM” value was 24656.

Same assay, conditions: Table E23; CD80 IgV-Fc (inert) at 33.3 nM; CHO cells stably expressing CTLA4
In the case of B17, the “CTLA4 MFI at 33.3 nM” value is reported as 13669.
For B18, the “CTLA4 MFI at 33.3 nM” value was 17327.

These molecules were tested against CD28 (Homo sapiens, UniProt P10747) (assay: Jurkat/IL2 + CHO/OKT3 +/- PD-L1 reporter assay: PD-L1-dependent CD28 costimulation). Conditions: Table E13; Jurkat/IL2 + CHO/OKT3/PD-L1; 5.0 nM.
Assay type: cell-based
Parameters: host or cells: Jurkat cells expressing an IL-2-luciferase reporter
Description: Jurkat cells were then plated at 50 μL/well for a total of 100,000 cells per well.
To each well, 25 μL of test protein was added to the Jurkat cells. […] The Jurkat cells with test or control proteins were incubated for 15 minutes at room temperature. CHO-derived artificial antigen presenting cells (aAPC) displaying transduced cell surface anti-CD3 single chain Fv (OKT3) (i.e., no PD-L1), or OKT3 and PD-L1 (i.e., +PD-L1), were brought to 0.8×10^6 cells/mL, and 25 μL of cells were added to each well, bringing the final volume of each well to 100 μL. […] Jurkat cells and CHO cells were incubated for 5 hours at 37 degrees Celsius in a humidified 5% CO2 incubation chamber. Plates were then removed from the incubator and acclimated to room temperature for 15 minutes. 100 μL of a cell lysis and luciferase substrate solution (BioGlo luciferase reagent, Promega) were added to each well and the plates were incubated on an orbital shaker for 10 minutes. Luminescence was measured with a 1 second per well integration time using a BioTek Cytation luminometer, and a relative luminescence value (RLU) was determined for each test sample.
B1 was tested, and the “Relative Luciferase Units (RLU), CD80 Cone 5.0 nM” value was 1006 RLU.
B2 was tested, and the “Relative Luciferase Units (RLU), CD80 Cone 5.0 nM” value was 183 RLU.
With B3 the “Relative Luciferase Units (RLU), CD80 Cone 5.0 nM” value was 1181 RLU.

Same assay, conditions: Table E17; consensus variants; Jurkat/IL2 + CHO/OKT3/PD-L1; 5.0 nM
For B2, the “Relative Luciferase Units (RLU), CD80 Cone 5.0 nM” value was 1968 RLU.

Same assay, conditions: Table E21; Jurkat/IL2 + CHO/OKT3/PD-L1; CD80 Conc 5.0 nM
B4 was tested, and the “Relative Luciferase Units (RLU), CD80 Conc 5.0 nM” value was 746 RLU.
For B5, the “Relative Luciferase Units (RLU), CD80 Conc 5.0 nM” value was 561 RLU.
For B6, the “Relative Luciferase Units (RLU), CD80 Conc 5.0 nM” value was 100 RLU.
With B7 the “Relative Luciferase Units (RLU), CD80 Conc 5.0 nM” value was 267 RLU.
In the case of B8, the “Relative Luciferase Units (RLU), CD80 Conc 5.0 nM” value is reported as 537 RLU.
With B9 the “Relative Luciferase Units (RLU), CD80 Conc 5.0 nM” value was 864 RLU.
For B10, the “Relative Luciferase Units (RLU), CD80 Conc 5.0 nM” value was 799 RLU.
In the case of B11, the “Relative Luciferase Units (RLU), CD80 Conc 5.0 nM” value is reported as 779 RLU.
In the case of B12, the “Relative Luciferase Units (RLU), CD80 Conc 5.0 nM” value is reported as 681 RLU.
B13 was tested, and the “Relative Luciferase Units (RLU), CD80 Conc 5.0 nM” value was 747 RLU.

Same assay, conditions: Table E22; Jurkat/IL2 + CHO/OKT3/PD-L1; CD80 Conc 5.0 nM
B14 was tested, and the “Relative Luciferase Units (RLU), CD80 Conc 5.0 nM” value was 675 RLU.
For B15, the “Relative Luciferase Units (RLU), CD80 Conc 5.0 nM” value was 590 RLU.
For B16, the “Relative Luciferase Units (RLU), CD80 Conc 5.0 nM” value was 745 RLU.

Same assay, conditions: Table E24; Jurkat/IL2 + CHO/OKT3/PD-L1; 5.0 nM
In the case of B17, the “Relative Luciferase Units (RLU), CD80 Conc 5.0 nM” value is reported as 881 RLU.
For B18, the “Relative Luciferase Units (RLU), CD80 Conc 5.0 nM” value was 972 RLU.

The molecules below were run against huPD-L1 (Homo sapiens, UniProt Q9NZQ7) (assay: Flow binding to CHO cells stably expressing PD-L1). Conditions: Table E11; CHO cells stably expressing PD-L1; 33.3 nM.
Sequence of huPD-L1 (Q9NZQ7 19-290): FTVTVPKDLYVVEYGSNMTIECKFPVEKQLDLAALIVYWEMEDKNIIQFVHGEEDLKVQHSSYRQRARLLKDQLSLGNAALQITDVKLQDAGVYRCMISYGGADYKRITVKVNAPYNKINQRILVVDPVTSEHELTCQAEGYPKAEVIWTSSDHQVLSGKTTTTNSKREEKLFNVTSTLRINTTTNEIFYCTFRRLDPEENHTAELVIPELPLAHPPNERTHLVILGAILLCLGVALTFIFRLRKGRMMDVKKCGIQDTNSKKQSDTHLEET
Parameters: huCTLA4 and huPD-L1, full-length mammalian surface expression constructs were generated; expressed in transfected cells; host or cells: CHO cells, lentiviral transduction, sorted to >98% purity
Description: as §1, §2, §3, §4
B1 was tested, and the “PD-L1 MFI at 33.3 nM” value was 1723.
In the case of B3, the “PD-L1 MFI at 33.3 nM” value is reported as 1721.

Same assay, conditions: Table E19; CHO cells stably expressing PD-L1; 33.3 nM
In the case of B4, the “PD-L1 MFI at 33.3 nM” value is reported as 7988.
In the case of B5, the “PD-L1 MFI at 33.3 nM” value is reported as 4852.
For B10, the “PD-L1 MFI at 33.3 nM” value was 26114.
With B11 the “PD-L1 MFI at 33.3 nM” value was 21827.
For B13, the “PD-L1 MFI at 33.3 nM” value was 23479.

Same assay, conditions: Table E20; CHO cells stably expressing PD-L1; 33.3 nM
For B15, the “PD-L1 MFI at 33.3 nM” value was 3195.
For B16, the “PD-L1 MFI at 33.3 nM” value was 27872.

Same assay, conditions: Table E23; CD80 IgV-Fc (inert) at 33.3 nM; CHO cells stably expressing PD-L1
With B17 the “PD-L1 MFI at 33.3 nM” value was 55417.
For B18, the “PD-L1 MFI at 33.3 nM” value was 29306.

From patent US20220177587A1, “METHODS AND USES OF VARIANT CD80 FUSION PROTEINS AND RELATED CONSTRUCTS” (Alpine Immune Sciences, Inc., priority 2018, published 2022)
